# Measurements: patent US7132274B2, “Method for identifying modulators of CLK-1 and UbiF activity” (priority 2003, dated 2006)
# Changes are numbered by the printed parent chain. Names and notes keep the numbering of the source.
# B1: Saccharomyces pombe coq7: yeast orthologue of clk-1 (protein, UniProt O74826 28-216, looked up)
# 5-demethoxyubiquinone …: ISMGRKELSEKDSNILDSVIRVDQAGELGANQIYKGQHFILQFTDPKVAPTIQHMWDQEKYHLATFDNYVLKNRVRPTFLRPFWDIAGFALGAGTALLGTKAAMACTEAVETVIGGHYNDQLRETAHLENKAPEFKEIRSHLAEFRDDELEHLNTAVEGWNAKEAPAHALLTNAIQMGCKAAIWMCKRF
# B2: CDB 694: C. elegans CLK-1 variant, mutation E148K (protein, UniProt P48376 9-187, looked up, variant E148K)
# NADPH-dependent …: AHTAASRQALIEKIIRVDHAGELGADRIYAGQLAVLQGSSVGSVIKKMWDEEKEHLDTMERLAAKHNVPHTVFSPVFSVAAYALGVGSALLGKEGAMACTIAVEELIGQHYNDQLKELLADDPETHKELLKILTRLRDEKLHHHDTGVEHDGMKAPAYSALKWIIQTGCKGAIAIAEKI
# B3: CDB 726: C. elegans CLK-1 variant, mutation G32D (protein, UniProt P48376 9-187, looked up, variant G32D)
# NADPH-dependent …: B2 NADPH-dependent … with G24D, K140E
# B4: CDB 690: C. elegans CLK-1 variant, mutation C177A (protein, UniProt P48376 9-187, looked up, variant C177A)
# NADPH-dependent …: B2 NADPH-dependent … with K140E, C169A
# B5: CDB 724: C. elegans CLK-1 variant, mutation E62L (protein, UniProt P48376 9-187, looked up, variant E62L)
# NADPH-dependent …: B2 NADPH-dependent … with E54L, K140E
# B6: CDB 716: C. elegans CLK-1 variant, mutation H118A (protein, UniProt P48376 9-187, looked up, variant H118A)
# NADPH-dependent …: B2 NADPH-dependent … with H110A, K140E
# B7: CDB 720: C. elegans CLK-1 variant, mutation E30A (protein, UniProt P48376 9-187, looked up, variant E30A)
# NADPH-dependent …: B2 NADPH-dependent … with E22A, K140E
# B8: CDB 721: C. elegans CLK-1 variant, mutation Y37A (protein, UniProt P48376 9-187, looked up, variant Y37A)
# NADPH-dependent …: B2 NADPH-dependent … with Y29A, K140E
# B9: CDB 700: C. elegans CLK-1 variant, mutation C107A/C177A (protein, UniProt P48376 9-187, looked up, variant C107A C177A)
# NADPH-dependent …: B2 NADPH-dependent … with C99A, K140E, C169A
# B10: CDB 698: C. elegans CLK-1 variant, mutation I115H (protein, UniProt P48376 9-187, looked up, variant I115H)
# NADPH-dependent …: B2 NADPH-dependent … with I107H, K140E
# B11: CDB 723: C. elegans CLK-1 variant, mutation E148K/L149N (protein, UniProt P48376 9-187, looked up, variant E148K L149N)
# NADPH-dependent …: B2 NADPH-dependent … with L141N
# B12: CDB 715: C. elegans CLK-1 variant, mutation H151A (protein, UniProt P48376 9-187, looked up, variant H151A)
# NADPH-dependent …: B2 NADPH-dependent … with K140E, H143A
# B13: CDB 711: C. elegans CLK-1 variant, mutation S51P (protein, UniProt P48376 9-187, looked up, variant S51P)
# NADPH-dependent …: B2 NADPH-dependent … with S43P, K140E
# B14: CDB 709: C. elegans CLK-1 variant, mutation Q174A (protein, UniProt P48376 9-187, looked up, variant Q174A)
# NADPH-dependent …: B2 NADPH-dependent … with K140E, Q166A
# B15: CDB 710: C. elegans CLK-1 variant, mutation Y90G (protein, UniProt P48376 9-187, looked up, variant Y90G)
# NADPH-dependent …: B2 NADPH-dependent … with Y82G, K140E
# B16: CDB 689: C. elegans CLK-1 variant, mutation C107A (protein, UniProt P48376 9-187, looked up, variant C107A)
# NADPH-dependent …: B2 NADPH-dependent … with C99A, K140E
# B17: CDB 725: C. elegans CLK-1 variant, mutation E147A/H151Q, less active than wild type (protein, UniProt P48376 9-187, looked up, variant E147A H151Q)
# NADPH-dependent …: B2 NADPH-dependent … with E139A, K140E, H143Q
# B18: CDB 719: C. elegans CLK-1 variant, mutation H63A (protein, UniProt P48376 9-187, looked up, variant H63A)
# NADPH-dependent …: B2 NADPH-dependent … with H55A, K140E
# B19: CDB 728: C. elegans CLK-1 variant, mutation E112A (protein, UniProt P48376 9-187, looked up, variant E112A)
# NADPH-dependent …: B2 NADPH-dependent … with E104A, K140E
# Test system: E. coli JF496 (ubiF411)
# Assay: not given
# Settings: yeast orthologue of clk-1; cited from earlier work
row,Molecule,complementation of UbiF-deficiency in JF496 bacteria
1,B1,cannot complement

# Test system: E. coli JF496 (ubiF411)
# Assay: JF496 complementation (growth rescue) assay
# Format: cell-based
# Settings: C. elegans CLK-1 variants expressed in JF496; growth rate relative to wild type CLK-1
# From the text: JF496 is useful for complementation assays using eukaryotic clk-1. As with all other ubi mutants, JF496 has a weak growth in liquid culture, and cannot use succinate as a unique carbon source. These characteristics were used to develop a gain-of-function assay, where JF496 was transformed with a eukaryotic clk-1 (here from C. elegans) and then wild-type growth was identified. Transgenic E. coli ubiF (Kwon et al., 2000 FEMS Microbiol Lett, 186, 157–161), and clk-1 from proteobacteria (Stenmark et al., 2001 J Biol Chem, 276, 33297–33300) have been tested in JF496.
# Growth conditions—For complementation assays, plasmids are freshly transformed by electroporation into E. coli JF496 ubiF(DE3) and grown overnight at 37° C. in 5 mL LB with 50 μg/mL ampicillin. The cultures are diluted 1/10 and OD600 measured. A bacterial volume corresponding to an OD600 of 0.03 in 5 mL is taken, centrifuged and resuspended in 100 μl of M9 medium. It is then added into 5 mL M9 containing 1 mM MgSO4, 20 μM CaCl2, 0.5 μg/mL thiamine, 0.12% casamino acids, 40 μg/mL D-L-methionine, 100 μg/mL L-asparagine, trace metals and 50 μg/mL ampicillin. This medium is supplemented with 0.5% glucose or 0.5% succinate. E. coli JF496 is grown at 37° C. for 8 hours. Samples (700-μL) are taken at 2-hour intervals and the OD600 is measured in order to determine the growth rate.
# Growth conditions—as described above in Section 6.1
# A selection of CLK-1 variants were constructed by site-directed mutagenesis and cloned into the JF496 system to assess their enzymatic activity relative to the wild type. The respective strains of JF496-clk-1 variants were cultured as described and the growth rate of each were measured. The results as shown in Table 4 indicate that certain residues and regions are not tolerant of amino acid substitution (amino acid substitution is indicated by one-letter codes).
row,Molecule,Activity in JF496 system
1,B2,Inactive
2,B3,Inactive
3,B4,Active
4,B5,Active
5,B6,Inactive
6,B7,Inactive
7,B8,Active
8,B9,Active
9,B10,Inactive
10,B11,Inactive
11,B12,Inactive
12,B13,Active
13,B14,Active
14,B15,Active
15,B16,Active
16,B17,Partially active
17,B18,Inactive
18,B19,Inactive
